Data taken from paper PMC11666352.
pKd: −log10 of the molar value.

How the values were obtained:
Assay in all cases: stopped-flow fluorescence anisotropy
Settings in all cases: T17 carries SIMA; Kd: 5 mM Tricine-KOH pH 8.0, 100 mM KCl, 3.4 mM MgCl2, 0.1 mM each dNTP, 0.01% Tween 20, 20 nM hairpin, 55 C (SYTO 13 1/5000 listed in the shared buffer)
Taq pol WT = Taq pol WT (UniProt P19821)
Taq pol H639Y H639Y = Taq pol H639Y H639Y (UniProt P19821)
[1] = biological target: Taq pol D578S-R728Q-M747Q D578S;R728Q;M747Q (UniProt P19821)
Taq pol M747D M747D = Taq pol M747D M747D (UniProt P19821)
Taq pol R660S R660S = Taq pol R660S R660S (UniProt P19821)
[2] = biological target: Taq pol E507R-R573K-E708Q E507R;R573K;E708Q (UniProt P19821)
[3] = biological target: Taq pol E507Q-S515N-D578S E507Q;S515N;D578S (UniProt P19821)
[4] = biological target: Taq pol S515N-M747S S515N;M747S (UniProt P19821)
[5] = biological target: Taq pol F667I-R728N-M747S F667I;R728N;M747S (UniProt P19821)
Taq pol S515F S515F = Taq pol S515F S515F (UniProt P19821)
Taq pol E626K E626K = Taq pol E626K E626K (UniProt P19821)
Taq pol E507K E507K = Taq pol E507K E507K (UniProt P19821)
Taq pol D578W D578W = Taq pol D578W D578W (UniProt P19821)
[6] = biological target: Taq pol E742K-A743R E742K;A743R (UniProt P19821)
[7] = biological target: Taq pol E507K-A570G-M747Q E507K;A570G;M747Q (UniProt P19821)
Taq pol R660V R660V = Taq pol R660V R660V (UniProt P19821)
[8] = biological target: Taq pol E507K-R536K-R660V E507K;R536K;R660V (UniProt P19821)
Taq pol E507D E507D = Taq pol E507D E507D (UniProt P19821)
Taq pol D732N D732N = Taq pol D732N D732N (UniProt P19821)
[9] = biological target: Taq pol R573K-D578N R573K;D578N (UniProt P19821)
Taq pol E708L E708L = Taq pol E708L E708L (UniProt P19821)
[10] = biological target: Taq pol E507K-A570T-M747Q E507K;A570T;M747Q (UniProt P19821)
Taq pol M747Q M747Q = Taq pol M747Q M747Q (UniProt P19821)
[11] = biological target: Taq pol S515D-K540M S515D;K540M (UniProt P19821)
[12] = biological target: Taq pol D578Q-D732N D578Q;D732N (UniProt P19821)
Taq pol H639A H639A = Taq pol H639A H639A (UniProt P19821)
[13] = biological target: Taq pol V586N-M747T V586N;M747T (UniProt P19821)
Taq pol E708D E708D = Taq pol E708D E708D (UniProt P19821)
Taq pol F667Y F667Y = Taq pol F667Y F667Y (UniProt P19821)
[14] = biological target: Taq pol E708Q-D732N E708Q;D732N (UniProt P19821)
[15] = biological target: Taq pol E507K-D732N E507K;D732N (UniProt P19821)
[16] = biological target: Taq pol D578H-M747Q D578H;M747Q (UniProt P19821)
Taq pol S515D S515D = Taq pol S515D S515D (UniProt P19821)
Taq pol D578K D578K = Taq pol D578K D578K (UniProt P19821)
Taq pol I707L I707L = Taq pol I707L I707L (UniProt P19821)
[17] = biological target: Taq pol E507K-D578E E507K;D578E (UniProt P19821)
Taq pol E507Q E507Q = Taq pol E507Q E507Q (UniProt P19821)
[18] = biological target: Taq pol E507Q-D578S-R728Q E507Q;D578S;R728Q (UniProt P19821)
Taq pol F667A F667A = Taq pol F667A F667A (UniProt P19821)
Taq pol S515N S515N = Taq pol S515N S515N (UniProt P19821)
[19] = biological target: Taq pol D578N-V783I D578N;V783I (UniProt P19821)
Taq pol M747E M747E = Taq pol M747E M747E (UniProt P19821)
Taq pol H639F H639F = Taq pol H639F H639F (UniProt P19821)
[20] = biological target: Taq pol D578S-R728Q-M747V D578S;R728Q;M747V (UniProt P19821)
Taq pol F667M F667M = Taq pol F667M F667M (UniProt P19821)
Taq pol D578N D578N = Taq pol D578N D578N (UniProt P19821)
[21] = biological target: Taq pol E507Q-D578S-I614M E507Q;D578S;I614M (UniProt P19821)

GCTATGCGTGAGCGCTTTTGCGCTCACGCATAGC [H-Kd hairpin]
pKd (Taq pol WT): 8.21 | pKd (Taq pol H639Y H639Y): 8.13 | pKd [1]: 7.99 | pKd (Taq pol M747D M747D): 7.53 | pKd (Taq pol R660S R660S): 7.97 | pKd [2]: 9.02 | pKd [3]: 8.54 | pKd [4]: 8.71 | pKd [5]: 7.84 | pKd (Taq pol S515F S515F): 6.68 | pKd (Taq pol E626K E626K): 8.24 | pKd (Taq pol E507K E507K): 8.47 | pKd (Taq pol D578W D578W): 8.30 | pKd [6]: 9.29 | pKd [7]: 8.29 | pKd (Taq pol R660V R660V): 8.21 | pKd [8]: 9.10 | pKd (Taq pol E507D E507D): 7.67 | pKd (Taq pol D732N D732N): 8.59 | pKd [9]: 8.36 | pKd (Taq pol E708L E708L): 8.17 | pKd [10]: 8.82 | pKd (Taq pol M747Q M747Q): 8.36 | pKd [11]: < 6.70 | pKd [12]: 9.10 | pKd (Taq pol H639A H639A): 8.09 | pKd [13]: 7.85 | pKd (Taq pol E708D E708D): 8.35 | pKd (Taq pol F667Y F667Y): 7.93 | pKd [14]: 8.36 | pKd [15]: 8.77 | pKd [16]: 8.48 | pKd (Taq pol S515D S515D): 7.09 | pKd (Taq pol D578K D578K): 8.38 | pKd (Taq pol I707L I707L): 8.07 | pKd [17]: 8.97 | pKd (Taq pol E507Q E507Q): 8.32 | pKd [18]: 8.20 | pKd (Taq pol F667A F667A): 7.95 | pKd (Taq pol S515N S515N): 8.17 | pKd [19]: 8.66 | pKd (Taq pol M747E M747E): 7.59 | pKd (Taq pol H639F H639F): 8.18 | pKd [20]: 7.86 | pKd (Taq pol F667M F667M): 8.06 | pKd (Taq pol D578N D578N): 8.37 | pKd [21]: 8.93
